The target in the assay is T1, FLAG-Eya3 (human), wild type, Q99504.
T1 chain: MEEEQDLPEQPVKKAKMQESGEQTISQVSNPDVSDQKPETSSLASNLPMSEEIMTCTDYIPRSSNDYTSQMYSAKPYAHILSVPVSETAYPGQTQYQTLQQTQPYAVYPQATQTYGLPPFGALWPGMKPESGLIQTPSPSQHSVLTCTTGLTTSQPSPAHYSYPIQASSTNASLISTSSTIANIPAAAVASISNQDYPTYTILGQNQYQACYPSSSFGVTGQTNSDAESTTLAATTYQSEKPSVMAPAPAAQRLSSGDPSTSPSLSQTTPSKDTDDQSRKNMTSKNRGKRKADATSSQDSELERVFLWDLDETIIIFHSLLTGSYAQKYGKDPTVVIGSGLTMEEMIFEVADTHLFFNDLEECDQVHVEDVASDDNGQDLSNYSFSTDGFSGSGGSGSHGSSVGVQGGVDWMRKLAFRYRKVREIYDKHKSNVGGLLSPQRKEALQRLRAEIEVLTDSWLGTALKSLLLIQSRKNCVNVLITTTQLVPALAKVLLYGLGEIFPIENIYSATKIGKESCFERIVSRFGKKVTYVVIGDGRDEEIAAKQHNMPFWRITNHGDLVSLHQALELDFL
Briefly: FLAG co-IP followed by Western blot, band quantification. Particulars: chain shown with the change; cotransfected HEK cells; three biological replicates; parent: est. 1.0; read off a plot. A general note: In western blotting, separated proteins are transferred to a membrane and probed.

B1: HA-tagged B55α (HA-B55α), wild type, P63151 F84-L90/GG (protein)
chain: MAGAGGGNDIQWCFSQVKGAVDDDVAEADIISTVEFNHSGELLATGDKGGRVVIFQQEQENKIQSHSRGEYNVYSTFQSHEPEGGEIEEKINKIRWLPQKNAAQFLLSTNDKTIKLWKISERDKRPEGYNLKEEDGRYRDPTTVTTLRVPVFRPMDLMVEASPRRIFANAHTYHINSISINSDYETYLSADDLRINLWHLEITDRSFNIVDIKPANMEELTEVITAAEFHPNSCNTFVYSSSKGTIRLCDMRASALCDRHSKLFEEPEDPSNRSFFSEIISSISDVKFSHSGRYMMTRDYLSVKIWDLNMENRPVETYQVHEYLRSKLCSLYENDCIFDKFECCWNGSDSVVMTGSYNNFFRMFDRNTKRDITLEASRENNKPRTVLKPRKVCASGKRKKDEISVDSLDFNKKILHTAWHPKENIIAVATTNNLYIFQDKVN
Turning to B1, the ratio to parent came out at 0.58.

The values are drawn from paper PMC11328874 (2024).
